Measured values published in paper PMC13582642.
Values joined by “and” are separate entries in the source; they are usually repeats but may differ in a detail not shown here. Identical values can stand only once.

Legend:
[1] = target: macrophage mannose receptor (CD206) (human (endogenous in moDCs)) (UniProt P22897)
[2] = target: UV-stressed (aggregated) infliximab; assay: FFF-MALS; asymmetric flow field flow fractionation (Eclipse AF4) with UV, MALS and dRI detectors; mobile phase 0.01 M monopotassium phosphate, 0.0027 M potassium chloride, 0.137 M sodium chloride
[3] = target: Fc gamma receptor IIa (human (endogenous in moDCs)) (UniProt P12318)
Chain of UniProt P12318 (P12318 34-317): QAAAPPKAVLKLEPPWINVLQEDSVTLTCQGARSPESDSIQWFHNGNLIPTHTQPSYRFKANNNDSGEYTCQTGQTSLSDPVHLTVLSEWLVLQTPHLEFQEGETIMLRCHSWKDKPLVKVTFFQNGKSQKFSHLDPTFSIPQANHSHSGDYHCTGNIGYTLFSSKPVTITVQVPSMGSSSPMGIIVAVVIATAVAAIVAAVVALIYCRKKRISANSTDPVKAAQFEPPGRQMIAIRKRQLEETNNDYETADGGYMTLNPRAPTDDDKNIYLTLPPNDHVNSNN

[4] = target: UV-stressed (aggregated) infliximab; assay: SEC; Agilent Bio SEC-3 column, 25 °C, 50 mM sodium phosphate, 150 mM KCl, 10% isopropanol, pH 6.8; samples at 1 mg/ml; fluorescence detection; percentages from peak areas
[5] = as above

Chain of UniProt P22897 (P22897 19-1456): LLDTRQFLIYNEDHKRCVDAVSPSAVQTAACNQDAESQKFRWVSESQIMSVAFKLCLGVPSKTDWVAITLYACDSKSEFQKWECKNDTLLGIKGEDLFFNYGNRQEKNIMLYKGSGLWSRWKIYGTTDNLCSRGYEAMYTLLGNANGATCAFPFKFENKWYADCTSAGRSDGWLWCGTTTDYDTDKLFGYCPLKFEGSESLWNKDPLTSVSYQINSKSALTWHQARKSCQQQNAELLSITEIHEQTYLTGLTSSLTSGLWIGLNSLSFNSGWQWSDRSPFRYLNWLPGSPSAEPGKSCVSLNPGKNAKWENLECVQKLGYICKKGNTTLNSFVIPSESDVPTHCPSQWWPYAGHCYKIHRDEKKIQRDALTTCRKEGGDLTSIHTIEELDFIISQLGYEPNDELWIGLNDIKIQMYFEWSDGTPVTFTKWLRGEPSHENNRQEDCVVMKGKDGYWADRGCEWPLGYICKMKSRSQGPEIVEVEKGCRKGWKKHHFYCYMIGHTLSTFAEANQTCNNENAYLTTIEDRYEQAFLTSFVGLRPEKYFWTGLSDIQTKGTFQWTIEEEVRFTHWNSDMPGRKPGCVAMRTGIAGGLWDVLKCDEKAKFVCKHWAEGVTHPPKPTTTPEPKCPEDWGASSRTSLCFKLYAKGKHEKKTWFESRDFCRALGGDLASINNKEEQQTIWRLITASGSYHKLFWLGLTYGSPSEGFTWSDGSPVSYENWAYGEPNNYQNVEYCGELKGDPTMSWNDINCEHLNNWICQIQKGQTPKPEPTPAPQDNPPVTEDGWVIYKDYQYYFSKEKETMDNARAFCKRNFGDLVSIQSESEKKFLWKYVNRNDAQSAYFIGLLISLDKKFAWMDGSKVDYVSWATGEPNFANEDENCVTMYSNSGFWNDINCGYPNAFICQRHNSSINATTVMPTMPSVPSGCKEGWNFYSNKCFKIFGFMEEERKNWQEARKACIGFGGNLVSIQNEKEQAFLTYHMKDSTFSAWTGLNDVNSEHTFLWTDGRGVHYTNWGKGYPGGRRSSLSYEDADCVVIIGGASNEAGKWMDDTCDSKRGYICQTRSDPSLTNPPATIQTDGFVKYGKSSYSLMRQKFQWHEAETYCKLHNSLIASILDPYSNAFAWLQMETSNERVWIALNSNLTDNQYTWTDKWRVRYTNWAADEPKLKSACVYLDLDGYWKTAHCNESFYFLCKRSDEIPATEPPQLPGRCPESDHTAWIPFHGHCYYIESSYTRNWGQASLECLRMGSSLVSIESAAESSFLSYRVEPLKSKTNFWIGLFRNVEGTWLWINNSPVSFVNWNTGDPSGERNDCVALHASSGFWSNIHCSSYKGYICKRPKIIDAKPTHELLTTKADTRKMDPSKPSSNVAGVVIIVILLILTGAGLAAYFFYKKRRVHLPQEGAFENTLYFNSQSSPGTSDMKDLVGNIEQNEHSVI

inhibition of the internalization rate of AF-488 IFX UV by moDCs (flow cytometry, 37 °C minus 4 °C) after pre-treatment with anti-CD206 IgG (10 µg/ml) [1] | inhibition of the percentage of moDCs internalizing AF-488 IFX UV after pre-treatment with anti-CD206 IgG (10 µg/ml) [1] | percent of dimers (FFF-MALS) [2] | percent of trimers and oligomers (FFF-MALS) [2] | reduction of the uptake of AF-488 IFX UV by moDCs after pre-treatment with anti-FcγRIIa Ab (1 µg/ml) [3] | stoichiometry N [4] | Substance | percent of dimers (ratio of SEC peak areas) [5] | percent of trimers (ratio of SEC peak areas) [5]
39% | 32% | 22.4% | 24.7% | 19% | 2 and 3 | UV-stressed (aggregated) infliximab (antibody) |  | 
 |  |  |  |  |  | UV-stressed (aggregated) infliximab | 19.27% ± 0.24% dimers | 26.19% ± 3.95 trimers
